In patent US20240317847A1 (Bayer, published 2024):

T1: murine IL-11 (mouse, UniProt P47873 22-199)
T1 construct: Invigate recombinant protein; biotinylated when immobilized in the Di-complex ELISA; also called mIL11; mIL-11
T1 sequence: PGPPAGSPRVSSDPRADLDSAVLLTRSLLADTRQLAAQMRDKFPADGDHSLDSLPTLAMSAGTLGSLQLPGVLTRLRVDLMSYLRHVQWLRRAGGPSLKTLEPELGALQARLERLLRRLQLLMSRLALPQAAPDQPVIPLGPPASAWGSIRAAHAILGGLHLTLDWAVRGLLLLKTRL

T2: cynomolgus IL-11 (cynomolgus, UniProt P20808 22-199)
T2 construct: Invigate, lot #C290621-19; also called cIL11; cynoL-11
T2 sequence: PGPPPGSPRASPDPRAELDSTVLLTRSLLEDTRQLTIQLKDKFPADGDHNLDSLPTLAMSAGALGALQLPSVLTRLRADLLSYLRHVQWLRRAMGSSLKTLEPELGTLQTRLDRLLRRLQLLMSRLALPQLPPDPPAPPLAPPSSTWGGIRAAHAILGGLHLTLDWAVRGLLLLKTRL

T3: human IL-11 (human, UniProt P20809 22-199)
T3 sequence: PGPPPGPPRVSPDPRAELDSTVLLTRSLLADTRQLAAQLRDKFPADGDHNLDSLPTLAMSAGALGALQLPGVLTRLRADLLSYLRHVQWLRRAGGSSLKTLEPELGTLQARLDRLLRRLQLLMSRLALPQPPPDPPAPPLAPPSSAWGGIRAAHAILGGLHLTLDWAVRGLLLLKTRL

T4: rat IL-11 (rat, UniProt Q99MF5 22-199)
T4 construct: Invigate recombinant protein; also called rIL11
T4 sequence: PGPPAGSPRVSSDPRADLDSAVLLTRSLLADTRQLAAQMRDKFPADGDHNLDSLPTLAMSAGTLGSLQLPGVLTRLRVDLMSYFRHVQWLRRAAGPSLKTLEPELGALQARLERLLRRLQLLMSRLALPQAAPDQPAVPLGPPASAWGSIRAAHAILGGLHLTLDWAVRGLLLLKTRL

T5: cynomolgus IL-11 (cynomolgus, UniProt P20808 22-199)
T5 construct: Invigate recombinant protein; also called cIL11; Macaca IL-11
T5 sequence: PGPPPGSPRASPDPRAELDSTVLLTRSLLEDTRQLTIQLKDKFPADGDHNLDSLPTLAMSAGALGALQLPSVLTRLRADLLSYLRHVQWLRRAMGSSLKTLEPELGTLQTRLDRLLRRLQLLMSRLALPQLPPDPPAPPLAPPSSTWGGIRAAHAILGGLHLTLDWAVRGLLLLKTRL


Assays:
[1] = biological target: T1, murine IL-11; assay: Tri-complex ELISA, mIL-11 + mIL-11Ra-Fc + mgp130-Fc, inhibition of complex formation
Description: In the Tri-complex ELISA format IL-11 antibodies are tested for their ability to inhibit the formation of a complex consisting of murine or human gp130-Fc fusion protein, with murine or human IL-11, and a murine IL11RA-Fc fusion protein. The assay format was adapted according to FIG. 18 (a, b), depending on whether murine or human IL-11 IgG antibodies were tested.
Bispecific antibodies were subjected to the experimental assay procedure described in Example 19 and IC50 [M], respectively efficacy (%) were calculated accordingly.

[2] = biological target: T1, murine IL-11; assay: Di-complex ELISA, murine IL11RA-Fc binding to immobilized mIL-11, competition
Description: In the Di-complex ELISA format anti IL-11 antibodies are tested for the ability to interfere with the formation of complexes consisting of immobilized murine IL-11 (Invigate, e.g., lot #C210819-09) or human IL-11 (Invigate, e.g., lot #C121021-19), and murine IL11RA-Fc fusion proteins or canine IL11RA-human-Fc fusion protein (FIG. 17a, b).
Bispecific antibodies were subjected to the experimental assay procedure described in Example 18 and IC50 [M], respectively efficacy (%) were calculated accordingly.

[3] = biological target: T2, cynomolgus IL-11; assay: SPR 37 C, antibody captured, IL-11 as analyte
[4] = biological target: T3, human IL-11; assay: cell-based or functional assay
[5] = biological target: T4, rat IL-11; assay: SPR (Biacore), 25 C, antibody captured via anti-Fc, IL-11 as analyte
Description: (§1) To assess the binding kinetics and affinity of anti-IL-11 bispecific antibodies as well as their species cross-reactivity profile, binding assays were conducted using surface plasmon resonance (SPR). […] Antibodies were captured either via anti-human Fc IgGs (“Human antibody capture kit”, Order No. BR100839, Cytiva) or via anti-mouse Fc IgGs (“Mouse antibody capture kit, Order No. BR100383, Cytiva) covalently amine coupled to a Series S CM5 sensor chip (Cytiva) depending on the isotype. The amine coupling was carried out according to the manufacturer's instructions using 1-ethyl-3-(3-dimethylaminopropyl) carbodiimide hydrochloride (EDC), N-hydroxysuccinimide (NHS) and ethanolamine HCl, pH 8.5 (“Amine Coupling Kit” BR-1000-50, Cytiva.). Human, mouse, cynomolgus or rat IL-11 was used as analyte at several dilutions within the concentration range from 0.05-200 nM. For binding assays with only one concentration 200 nM IL-11 was used. The sensor surface was regenerated with glycine pH 1.7 after each antigen injection. Obtained sensorgrams were double referenced (subtraction of reference flow cell signal and buffer injection) and were fitted to a 1:1 Langmuir binding model to derive kinetic data using the Biacore T200 Evaluation software or the Biacore Insight software.
(§2) If no value is reported, there was either no binding or very low binding and multiphasic binding behavior.

[6] = biological target: T5, cynomolgus IL-11; assay: as above
Description: as §1, §2

[7] = biological target: T1, murine IL-11; assay: as above
Description: as §1, §2

Efficacy (%) [1] [%] | IC50 [1] [nM] | Efficacy (%), Stat3 reporter gene assay [4] [%] | IC50, Stat3 reporter gene assay [4] [nM] | Binder | further results
98.5 | 0.17 |  |  | TPP-29603 (bispecific antibody, IgG1, scFv-kih-mIgG1; bispecific comprising CDRs of TPP-29528 and TPP-29519) chain 1: QVQLVESGGGVVQPGRSLRLSCAASGFTFSHYDMHWVRQAPGKGLEWVAVISYHGSVKFYADSVKGRFTISRDNSKNTLYLQMNSLRAEDTAVYYCARTPGFHFDYWGQGTLVTVSSGGGGSGGGGSGGGGSQSVLTQPPSASGTPGQRVTISCSGSSSNIGSNYVSWYQQLPGTAPKLLIYYDDLRPSGVPDRFSGSKSGTSASLAISGLRSEDEADYYCSAWDDSLSGVVFGGGTKLTVLGGGGSGGGGSGGGGSGVECPPCPAPPVAGPSVFIFPPKPKDVLTITLTPKVTCVVVDISKDDPEVQFSWFVDDVEVHTAQTQPREEQFNSTFRSVSELPIMHQDWLNGKEFKCRVNSAAFPAPIEKTISKTKGRPKAPQVYTIPPCKEQMAKDKVSLWCMITDFFPEDITVEWQWNGQPAENYKNTQPIMDTDGSYFVYSKLNVQKSNWEAGNTFTCSVLHEGLHNHHTEKSLSHSPGK chain 2: EVQLLESGGGLVQPGGSLRLSCAASGFTFSSYGMHWVRQAPGKGLEWVAVISYDGSYKYYADSVKGRFTISRDNSKNTLYLQMNSLRAEDTAVYYCAAGVPDYWGQGTLVTVSSGGGGSGGGGSGGGGSQSVLTQPPSASGTPGQRVTISCSGSSSNIGSDYDVHWYQQLPGTAPKLLIYSNEERPSGVPDRFSGSKSGTSASLAISGLRSEDEADYYCSAWDSSLSGPVFGGGTKLTVLGGGGSGGGGSGGGGSGVECPPCPAPPVAGPSVFIFPPKPKDVLTITLTPKVTCVVVDISKDDPEVQFSWFVDDVEVHTAQTQPREEQFNSTFRSVSELPIMHQDWLNGKEFKCRVNSAAFPAPIEKTISKTKGRPKAPQVCTIPPPKEQMAKDKVSLSCAITDFFPEDITVEWQWNGQPAENYKNTQPIMDTDGSYFVVSKLNVQKSNWEAGNTFTCSVLHEGLHNHHTEKSLSHSPGK | 
104 | 0.0622 |  |  | TPP-29697 (bispecific antibody, IgG1, scFv-kih-hIgG1 with Fc-silencing mutations; bispecific comprising CDRs of TPP-29528 and TPP-29519) chain 1: QVQLVESGGGVVQPGRSLRLSCAASGFTFSHYDMHWVRQAPGKGLEWVAVISYHGSVKFYADSVKGRFTISRDNSKNTLYLQMNSLRAEDTAVYYCARTPGFHFDYWGQGTLVTVSSGGGGSGGGGSGGGGSQSVLTQPPSASGTPGQRVTISCSGSSSNIGSNYVSWYQQLPGTAPKLLIYYDDLRPSGVPDRFSGSKSGTSASLAISGLRSEDEADYYCSAWDDSLSGVVFGGGTKLTVLGGGGSGGGGSGGGGSGVECPPCPAPPVAGPSVFLFPPKPKDTLMISRTPEVTCVVVGVSHEDPEVKFNWYVDGVEVHNAKTKPREEQYNSTYRVVSVLTVLHQDWLNGKEYKCKVSNKQLPSPIEKTISKAKGQPREPQVYTLPPCRDELTKNQVSLWCLVKGFYPSDIAVEWESNGQPENNYKTTPPVLDSDGSFFLYSKLTVDKSRWQQGNVFSCSVMHEALHNHYTQKSLSLSPGK chain 2: EVQLLESGGGLVQPGGSLRLSCAASGFTFSSYGMHWVRQAPGKGLEWVAVISYDGSYKYYADSVKGRFTISRDNSKNTLYLQMNSLRAEDTAVYYCAAGVPDYWGQGTLVTVSSGGGGSGGGGSGGGGSQSVLTQPPSASGTPGQRVTISCSGSSSNIGSDYDVHWYQQLPGTAPKLLIYSNEERPSGVPDRFSGSKSGTSASLAISGLRSEDEADYYCSAWDSSLSGPVFGGGTKLTVLGGGGSGGGGSGGGGSGVECPPCPAPPVAGPSVFLFPPKPKDTLMISRTPEVTCVVVGVSHEDPEVKFNWYVDGVEVHNAKTKPREEQYNSTYRVVSVLTVLHQDWLNGKEYKCKVSNKQLPSPIEKTISKAKGQPREPQVCTLPPSRDELTKNQVSLSCAVKGFYPSDIAVEWESNGQPENNYKTTPPVLDSDGSFFLVSKLTVDKSRWQQGNVFSCSVMHEALHNHYTQKSLSLSPGK | IC50 [2]: 1.4 nM
 |  |  |  | TPP-18068 (antibody, mouse IgG1, mIgG1, Lambda) heavy: EVQLLESGGGLVQPGGSLRLSCAASGFTFSSYGMHWVRQAPGKGLEWVSVISYDGSYKYYADSVKGRFTISRDNSKNTLYLQMNSLRAEDTAVYYCAAGVPDYWGQGTLVTVSSAKTTPPSVYPLAPGSAAQTNSMVTLGCLVKGYFPEPVTVTWNSGSLSSGVHTFPAVLQSDLYTLSSSVTVPSSTWPSETVTCNVAHPASSTKVDKKIVPRDCGCKPCICTVPEVSSVFIFPPKPKDVLTITLTPKVTCVVVDISKDDPEVQFSWFVDDVEVHTAQTQPREEQFNSTFRSVSELPIMHQDWLNGKEFKCRVNSAAFPAPIEKTISKTKGRPKAPQVYTIPPPKEQMAKDKVSLTCMITDFFPEDITVEWQWNGQPAENYKNTQPIMDTDGSYFVYSKLNVQKSNWEAGNTFTCSVLHEGLHNHHTEKSLSHSPGK light: QSVLTQPPSASGTPGQRVTISCTGSSSNIGAGYDVHWYQQLPGTAPKLLIYSNNERPSGVPDRFSGSKSGTSASLAISGLRSEDEADYYCAAWDDSLNGPVFGGGTKLTVLGQPKSSPSVTLFPPSSEELETNKATLVCTITDFYPGVVTVDWKVDGTPVTQGMETTQPSKQSNNKYMASSYLTLTARAWERHSSYSCQVTHEGHTVEKSLSRADCS [TPP-18068, listing 1 of 2 here] | Kd [3]: 5 nM
 |  | 20.7 | 4.8 | TPP-18068 (antibody, mouse IgG1, mIgG1, Lambda) heavy: EVQLLESGGGLVQPGGSLRLSCAASGFTFSSYGMHWVRQAPGKGLEWVSVISYDGSYKYYADSVKGRFTISRDNSKNTLYLQMNSLRAEDTAVYYCAAGVPDYWGQGTLVTVSSAKTTPPSVYPLAPGSAAQTNSMVTLGCLVKGYFPEPVTVTWNSGSLSSGVHTFPAVLQSDLYTLSSSVTVPSSTWPSETVTCNVAHPASSTKVDKKIVPRDCGCKPCICTVPEVSSVFIFPPKPKDVLTITLTPKVTCVVVDISKDDPEVQFSWFVDDVEVHTAQTQPREEQFNSTFRSVSELPIMHQDWLNGKEFKCRVNSAAFPAPIEKTISKTKGRPKAPQVYTIPPPKEQMAKDKVSLTCMITDFFPEDITVEWQWNGQPAENYKNTQPIMDTDGSYFVYSKLNVQKSNWEAGNTFTCSVLHEGLHNHHTEKSLSHSPGK light: QSVLTQPPSASGTPGQRVTISCTGSSSNIGAGYDVHWYQQLPGTAPKLLIYSNNERPSGVPDRFSGSKSGTSASLAISGLRSEDEADYYCAAWDDSLNGPVFGGGTKLTVLGQPKSSPSVTLFPPSSEELETNKATLVCTITDFYPGVVTVDWKVDGTPVTQGMETTQPSKQSNNKYMASSYLTLTARAWERHSSYSCQVTHEGHTVEKSLSRADCS [TPP-18068, listing 2 of 2 here] | Kd [5]: 0.29 nM; Kd [6]: 3.8 nM; Kd [7]: 0.35 nM
 |  | 51.5 | 110 | TPP-18087 (antibody, mouse IgG1, V domains shown, mIgG1, Lambda) VH: EVQLLESGGGLVQPGGSLRLSCAASGFTFSHYDMNWLRQAPGKGLEWVGVISYDGSNKFYADFVKGRFTISRDNSKNTLYLQMNSLRAEDTAVYYCARTPGSHFDYWGQGTLVTVSS VL: QSVLTQPPSASGTPGQRVTISCSGSSSNIGNNAVNWYQQLPGTAPKLLIYYDDLLPSGVPDRFSGSKSGTSASLAISGLRSEDEADYYCSAWDDSLNGVVFGGGTKLTVLG | 
